Laboratory results: US12018068B2, “Anti-O1 antibodies and uses thereof” (priority 2016, dated 2024)
“Also recorded” adds a separate entry of the source.

Experiments:
[1] = test system: K. pneumoniae carbapenem-resistant (CRE) strain Kp1131115 (O1); experiment: acute lethal pneumonia model, survival; format: in vivo, Klebsiella pneumoniae; details: C57BL/6 mice, antibody one hour post bacterial challenge, vs human IgG1 control (R347)
Description: In an acute pneumonia model, C57BL/6 mice were inoculated intranasally with 1e4 to 1e8 CFU of the multi-drug resistant Klebsiella pneumoniae carbapenam resistant (CRE) clinical isolate strain KP1131115 (O1). Anti-K. pneumoniae monoclonal antibody KPE33 at 0.2, 1, and 5 mg/kg and human IgG1 control antibody at 5 mg/kg were given one hour post bacterial challenge (therapeutic dosing). Mouse survival was monitored daily until up to day 8.
Additionally, in an acute pneumonia model, C57BL/6 mice were inoculated intranasally with 1e4 to 1e8 CFU of the multi-drug resistant Klebsiella pneumoniae carbapenam resistant (CRE) clinical isolate strain KP1131115 (O1). Anti-K. pneumoniae monoclonal antibodies […] and […] at 0.2 and 1 mg/kg and human IgG1 control antibody at 5 mg/kg were given one hour post bacterial challenge (therapeutic dosing). Mouse survival was monitored daily until up to day 8.
KPE33 or KPE33-V-2016 were administered at a dose of 6 mg/kg 1 hour post bacterial infection with a Klebsiella pneumoniae carbapenam resistant strain.

[2] = test system: clinical Klebsiella strains; experiment: western blot binding to clinical isolates
Description: In order to determine if anti-O1 antigen antibodies bind to clinically relevant Klebsiella strains, the binding of KPE33 to clinical isolates was determined by western blot assay. The ability of KPE33 to bind to all of these strains as well as its ability to protect against four different strains in vivo indicate that KPE33 can kill many clinically relevant Klebsiella strains.

Kp8045 Klebsiella = experiment: pneumonia model, 54H7 synergy with meropenem; format: in vivo, Klebsiella pneumoniae; details: antibody 1 mpk at 1 hour, meropenem 1.5 mpk at 4 hour post challenge
Description: The synergy of anti-O1 antigen antibodies and antibiotic was also assessed in the pneumonia mouse models. C57BL/6 mice were inoculated intranasally with 1e4 to 1e8 CFU of Kp8045 Klebsiella. Both sub-therapeutic dosage of antibodies (1 mpk) and meropenem antibiotic (1.5 mpk) were administered at 1 hour or 4 hour post bacterial challenge, respectively. Mouse survival was monitored daily until up to day 8.

[3] = test system: Kp43816 LPS and Kp15380 LPS; experiment: serum cytokines after LPS challenge (MSD kit); format: in vivo, C57BL/6 mice; details: 3 hours after challenge with Kp43816 LPS and Kp15380 LPS
Description: In order to determine the effect of anti-O1 antigen antibodies on serum cytokines after LPS challenge, C57BL/6 mice were challenged with 0.3 mg/kg LPS intraperitoneally 24 hours after anti-O1 administration. 3 hours later, animals were sacrificed, and serum cytokines were measured using a Meso Scale Discovery (MSD) proinflammatory cytokine kit based on manufacturer's instruction. Polymyxin B (PMB) was used as a positive control. Serum IL-6, TNF-alpha, and CXCL1 concentration were plotted in Prism.

[4] = test system: highly virulent strain Kp43816 (O1); experiment: acute pneumonia model with Kp43816, prophylactic dosing, survival; format: in vivo, Klebsiella pneumoniae; details: 15 mpk, 24 hour prior to challenge
Description: In order to determine the efficacy of anti-O1 antigen antibodies in combination with antibiotics, 54H7 was tested in an acute pneumonia models. C57BL/6 mice were inoculated intranasally with 1e4 CFU of highly virulent strain Kp43816 (O1). Anti-K. pneumoniae monoclonal antibody 54H7 at 15 mg/kg and human IgG1 control antibody at 15 mg/kg were given 24 hour prior bacterial challenge (prophylatic dosing). Mouse survival was monitored daily until up to day 14.

B1: KPE33: human anti-K. pneumoniae O1 antigen antibody, VH SEQ ID NO:8, VL SEQ ID NO:9, isolated as IgG2 from donor #262 (antibody, V domains shown)
VH: EVQLVESGGALVQPGGSLRLSCAVSGFIFDDYAIHWVRRAPGKGLEWVSGIAWKSGATNYADSVKGRFAISRDNSKKSMYLQMNSLGTEDTALYYCTRRRASGDDTFYYFDYWGQGTLVTVSS
VL: EIVLTQSPATLSLSPGERATLSCRASQNVNTNLAWYQQRPGQSPRLLIYDASTRAAGLPARFSGSGSGTDFTLTISSLEPEDFAVYYCQQCTNWRYTFGQGTKLEIK
modifications: KPE33 VH Amino Acid Sequence; KPE33 VL Amino Acid Sequence
- survival, lethal pneumonia Kp1131115 [1]: protect mice from lethal bacterial challenge; also recorded: dose dependently enhanced survival
- binding to clinical isolates ([2]; Table 8): binds not only to a large and diverse group of clinical strains, but also to antibiotic resistant clinically relevant strains
- binding of KPE33 to clinical Klebsiella strains ([2]; clinical isolates listed in Table 8 (rows 1-36 CRE, rows 37-134 ESBL, rows 135-184 antibiotic-susceptible)): Summary of clinical Klebsiella strains which KPE33 binds.

B2: 54H7: mouse hybridoma anti-O1 antigen antibody (Ms IgG3), VH SEQ ID NO:47, VL SEQ ID NO:48 (antibody, V domains shown)
VH: QVHLQQPGSELVRPGASVTLSCKASGYTFTNYWMQWVKQRPGQGLEWIGNIYPGSGNTNYDEKFRSKATLTVDTSSSTAYMHLTSLTSEDSAVYYCTRNWNFDYWGQGTTLTVSS
VL: DIQMTQSPSSLSASLGERVSLTCRASQDIGSSLNWLQQEPDGTIKRLIYATSSLDSGVPKRFSGSRSGSEYSLTISSLEAEDFVDYYCLQHTDSPYTFGGGTKLELK
modifications: 54H7 VH; 54H7 VL Amino Acid Sequence
- survival, combination with meropenem, pneumonia Kp8045 (Kp8045 Klebsiella): significant synergy and better protection than monotherapy
- serum IL-6 [3]: reduces
- serum KC (CXCL1) [3]: reduces
- serum TNF-alpha [3]: reduces
- survival, Kp43816 pneumonia, monotherapy [4]: significant protection
